{"source": "patent US20230416825A1", "molecules": {"B1": {"name": "SPINK9 (I20-C86.C22S.H48R.M49E)-Fc (Fc fusion, not shown: a dimerising Fc or GST)", "chain": "IESAKQTKQMVDCSHYKKLPPGQQRFCHREYDPICGSDGKTYKNDCFFCSKVKKTDGTLKFVHFGKC"}}, "key": {"[1]": {"target": "Recombinant human KLK5 (Genentech) (human) (UniProt Q9Y337)", "sequence (Q9Y337 67-293 limits assumed, form in doubt)": "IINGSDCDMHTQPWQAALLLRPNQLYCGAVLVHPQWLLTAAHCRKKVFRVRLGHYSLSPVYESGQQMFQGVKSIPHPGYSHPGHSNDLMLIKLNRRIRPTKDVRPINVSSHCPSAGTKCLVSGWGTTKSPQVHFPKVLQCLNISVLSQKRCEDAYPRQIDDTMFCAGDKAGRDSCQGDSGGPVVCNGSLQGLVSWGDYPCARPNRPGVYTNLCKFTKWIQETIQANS", "assay": "cell-based or functional assay"}, "[2]": {"target": "Recombinant human KLK5 (Genentech) (human) (UniProt Q9Y337)", "assay": "cell-based or functional assay", "remark": "listed apart in the source"}}, "note": "Like-named read-outs stand apart in the source and are kept apart here.", "data": [{"molecule": "mAb1108 (Monoclonal Mouse IgG2b Clone #193318, R & D Systems, Minneapolis, MN) (antibody)", "values": [{"measurement": "IC50, LC/MS assay of KLK5 (0.5 nM) cleavage of pro-KLK1", "setting": "[1]", "value": 0.34, "unit": "nM"}, {"measurement": "IC50, LC/MS assay of KLK5 (5 nM) cleavage of pro-KLK7 (15 nM)", "setting": "[1]", "value": 1.86, "unit": "nM"}, {"measurement": "direct KLK5 activity assay at 20, 10, 5 and 2.5 nM KLK5: reduction in cleavage of the fluorescent peptide substrate", "setting": "[1]", "value": 30, "unit": "%"}, {"measurement": "maximum KLK5 inhibition, LC/MS assay of KLK5 (0.5 nM) cleavage of pro-KLK1", "setting": "[1]", "value": 40, "unit": "%"}]}, {"molecule": "B1", "values": [{"measurement": "IC50, LC/MS assay of KLK5 (0.5 nM) cleavage of pro-KLK1", "setting": "[2]", "value": 0.58, "unit": "nM"}, {"measurement": "IC50, LC/MS assay of KLK5 (5 nM) cleavage of pro-KLK7 (15 nM)", "setting": "[2]", "value": 1.13, "unit": "nM"}]}]}
